One molecule from PMC10598227, “Structural insights for selective disruption of Beclin 1 binding to Bcl-2” (Communications Biology, 2023) can be followed below.

One experiment concerns the target T1, Bcl-2(1-218) (human, UniProt P10415 1-218).
T1 construct: Uniformly 15N-labelled for NMR. pSKB2 vector with HRV 3C cleavage site; also called cytoplasmic region of Bcl-2 (residues 1-218); Becl-2(1-218); source: E. coli BL21 (DE3), purified (Ni-NTA, His6-tag cleaved with 3C protease, Superdex 75); not shown: His6, N-terminal, cleaved
Nature of the experiment: NMR titration; 1H-15N TROSY-HSQC spectra of 10-45 uM uniformly 15N-labelled Bcl-2 fragment without and with Beclin 1 BH3 peptide added from a d6-DMSO stock; 25 °C, 20 mM sodium phosphate pH 7.3, 1 mM TCEP, 7% D2O. The settings on record: both partners purified.

The next experiment deals with T2, Bcl-2(1-206) (human, UniProt P10415 1-206).
T2 construct: vector analogous to that of human Bcl-2(1-218), isoform alpha; Uniformly 15N-labelled for NMR; Vector was a gift from Beth Levine, called analogous to the pSKB2 vector of Bcl-2(1-218); also called Bcl-2 fragment lacking the juxtamembrane region; Bcl-2(1-2-6); source: E. coli BL21 (DE3), purified (Ni-NTA, His6-tag cleaved with 3C protease, Superdex 75); not shown: His6, N-terminal, cleaved
Described as above. The settings on record: both partners purified.

T1 sequence (P10415 1-218): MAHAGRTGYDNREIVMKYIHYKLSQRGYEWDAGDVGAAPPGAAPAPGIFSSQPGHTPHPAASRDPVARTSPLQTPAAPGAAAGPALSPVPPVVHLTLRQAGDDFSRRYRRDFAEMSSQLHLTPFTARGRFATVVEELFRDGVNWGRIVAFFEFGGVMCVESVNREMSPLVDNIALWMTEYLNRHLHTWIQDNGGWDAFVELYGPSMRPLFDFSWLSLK
T2 sequence (P10415 1-206): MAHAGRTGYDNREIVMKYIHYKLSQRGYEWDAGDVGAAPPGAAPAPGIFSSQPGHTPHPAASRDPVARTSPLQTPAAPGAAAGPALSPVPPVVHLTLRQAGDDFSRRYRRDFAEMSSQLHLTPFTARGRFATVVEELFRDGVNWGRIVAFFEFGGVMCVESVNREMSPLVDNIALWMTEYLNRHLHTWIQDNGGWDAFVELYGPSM

B1: Beclin 1 BH3 peptide (peptide)
peptide: DGGTMENLSRRLKVTGDLFDIMSGQT
notes: Beclin 1, human, residues 105-130 (BH3 domain); L-amino acid peptide, dissolved in d6-dimethylsulfoxide; also called Beclin 1 BH3 domain; source: synthetic peptide (Protein Chemistry Technology Core, UT Southwestern), HPLC purified
On to B1, for which the binding result in the experiment with Bcl-2(1-218) and with Bcl-2(1-206) was “binds” each time.
